Test results published in patent US20240024504A1, “SITE-SELECTIVE LYSINE ACETYLATION OF HUMAN IMMUNOGLOBULIN G AND IgG-RELATED PRODUCTS FOR IMMUNOTHERAPY” (The Chinese University of Hong Kong, priority 2022, published 2024).

Experiments:
[1] = molecular target: T1, His-tagged human PD-L1 (Homo sapiens, UniProt Q9NZQ7); assay: Pull-down assay of modified atezolizumab on PD-L1 loaded Ni-NTA resins; assay type: binding; conditions: PD-L1 immobilized on Ni-NTA resins
T1 construct: purchased GenScript
Protocol: (FIG. 16A) A pull-down experiment in vitro. […] (FIG. 16B) FITC labeled PD-L1 was immobilized on Ni-NTA agarose resin through polyhistidine tag.
Ni-NTA agarose resins were resuspended and 20 μL resins were pipetted into a 1.5 mL tube. After washing with PBS-T buffer (phosphate buffered saline supplemented with 0.1% Tween-20), His-tagged human PD-L1 (200 nM) was immobilized on Ni-NTA resins in 100 μL buffer solution (20 mM imidazole, pH 7.4 PBS-T) at room temperature for 1 h with shaking. The binding solution was removed by centrifugation and the resins were washed three times with pH 7.4 PBS-T buffer. Then Atezo-TAMRA (100 nM) was incubated with the resins in 100 μL buffer solution (20 mM imidazole, pH 7.4 PBS-T) for 1 h with shaking. Next, the resins were washed three times with PBS-T and eluted by boiling the beads for 10 min in 2× sample loading buffer. The samples were analyzed by SDS-PAGE. As a negative control, same amount of polyclonal IgG was incubated with the PD-L1 loaded resins. For confocal microscopy, His-tagged human PD-L1 was firstly labelled by FITC.

[2] = system: PD-L1 positive (PC12) cells; assay: Immunofluorescence of modified atezolizumab, confocal microscopy; assay type: cell-based; conditions: 150 nM, PBS pH 7.4, 37° C., 15 min
Protocol: FIG. 5A-5B Acetylation of therapeutic antibody and immunofluorescence. (FIG. 5A) Acetylation reaction monitored by SDS-PAGE and fluorescent scanning. Reaction condition: 4 μM antibodies, 24 μM F1, PBS buffer (pH 7.4), at 37° C. for 1 h. The reactions were quenched with 1% SDS and DBCO-TAMRA was added at room temperature for 1.5 h for SPAAC reaction before SDS-PAGE and in-gel fluorescent imaging. Lane M, molecular weight marker; lane 1, M-trastuzumab; lane 2, M-cetuximab; lane 3, M-daratumumab; […], reduced results of […]. […] Incubation conditions: Cells were incubated with modified antibodies (150 nM) in PBS buffer (pH 7.4) at 37° C. for 15 min before the fixation of cells.

[3] = system: IgG Fc; assay: Competition between reactive peptide (F1) and non-reactive peptide; assay type: biochemical, human; conditions: non-reactive peptide added to the reaction of F1 and IgG
Protocol: (FIG. 3A) The structures of peptides used in this work. FITC moiety was added at the N-termini of the peptides to MST analysis.

T1 sequence (Q9NZQ7 19-290): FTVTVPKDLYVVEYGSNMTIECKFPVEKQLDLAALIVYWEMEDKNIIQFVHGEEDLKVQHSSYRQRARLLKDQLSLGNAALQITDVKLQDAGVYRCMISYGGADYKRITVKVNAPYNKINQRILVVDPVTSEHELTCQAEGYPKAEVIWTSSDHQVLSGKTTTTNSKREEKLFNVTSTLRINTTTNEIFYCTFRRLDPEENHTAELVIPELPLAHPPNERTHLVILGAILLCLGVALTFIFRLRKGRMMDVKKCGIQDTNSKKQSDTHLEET

| Compound | binding to PD-L1 (pull-down) [1] | binding to PD-L1 (pull-down) ([1]; listed as acetylated atezolizumab) | binding to cells (immunofluorescence) [2] | effect on the acetylation reaction of F1 and IgG [3] |
| --- | --- | --- | --- | --- |
| M-Atezo: atezolizumab azidoacetylated at Lys248 of the Fc by F1 (DBCO-TAMRA tagged for detection) | reserved the binding ability to PD-L1 | could still bind its ligand | maintained their binding with PD-L1 positive (PC12) cells |  |
| CC(C)C[C@@H]1NC(=O)C(CCC(=O)O)NC(=O)CNC(=O)[C@H](CC(C)C)NC(=O)[C@H](Cc2c[nH]cn2)NC(=O)[C@H](Cc2c[nH]c3ccccc23)NC(=O)[C@H](C)NC(=O)[C@@H](NC(=O)[C@H](CC(=O)O)NC(=O)CCNC(=O)CNC(=S)Nc2ccc(-c3c4ccc(=O)cc-4oc4cc(O)ccc34)c(C(=O)O)c2)CSSC[C@@H](C(=O)N[C@H](C(N)=O)[C@@H](C)O)NC(=O)[C@H](Cc2c[nH]c3ccccc23)NC(=O)[C@H](C(C)C)NC1=O (stereo partly shown) [f-F0] |  |  |  | abolished the acetylation reaction |
